Test [1] addresses T1, 4H2713-AA.
T1 chain: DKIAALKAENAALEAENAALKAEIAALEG
The experiment in a line: two-hybrid library CCmax.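 Also: natural log of median RNA to DNA barcode read ratio; higher means stronger binding.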 Particulars: mean of both orientations.

In test [2] the target is T2, 4H428-AA.
T2 chain: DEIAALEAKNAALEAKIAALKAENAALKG
The experiment in a line: two-hybrid library CCmax.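 Also: natural log of median RNA to DNA barcode read ratio; higher means stronger binding.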 Particulars: mean of both orientations.

Test [3] deals with T3, 4H1391-AA.
T3 chain: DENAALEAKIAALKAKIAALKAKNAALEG
The experiment in a line: two-hybrid library CCmax.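 Also: natural log of median RNA to DNA barcode read ratio; higher means stronger binding.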

For test [4], the target named is T4, 4H3920-AA.
T4 chain: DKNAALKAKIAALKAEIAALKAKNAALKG
The experiment in a line: two-hybrid library CCmax.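 Also: natural log of median RNA to DNA barcode read ratio; higher means stronger binding.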 The following applies: mean of both orientations.

The target in test [5] is T5, 4H3066-AA.
T5 chain: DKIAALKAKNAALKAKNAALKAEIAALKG
The experiment in a line: two-hybrid library CCmax.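 Also: natural log of median RNA to DNA barcode read ratio; higher means stronger binding.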 Particulars: mean of both orientations.

In test [6] the target is T6, 4H675-AA.
T6 chain: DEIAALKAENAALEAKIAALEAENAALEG
The experiment in a line: two-hybrid library CCmax.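 Also: natural log of median RNA to DNA barcode read ratio; higher means stronger binding.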 Particulars: mean of both orientations.

In test [7] the target is T7, 4H146-AA.
T7 chain: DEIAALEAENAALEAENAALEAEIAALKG
The test can be described thus: two-hybrid library CCmax. Particulars: mean of both orientations.

In test [8] the target is T8, 4H656-AA.
T8 chain: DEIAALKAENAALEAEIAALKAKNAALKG
The experiment in a line: two-hybrid library CCmax. Particulars: mean of both orientations.

In test [9] the target is T9, 4H1146-AA.
T9 chain: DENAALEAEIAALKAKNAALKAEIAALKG
The test can be described thus: two-hybrid library CCmax.

The target in test [10] is T10, 4H2991-AA.
T10 chain: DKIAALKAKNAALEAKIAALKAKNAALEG
The test can be described thus: two-hybrid library CCmax. The following applies: mean of both orientations.

The target of test [11] is T11, 4H3666-AA.
T11 chain: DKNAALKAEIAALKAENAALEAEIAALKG
The test can be described thus: two-hybrid library CCmax. The following applies: mean of both orientations.

For test [12], the target named is T12, 4H478-AA.
T12 chain: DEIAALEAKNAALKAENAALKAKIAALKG
The experiment in a line: two-hybrid library CCmax. The following applies: mean of both orientations.

The target of test [13] is T13, 4H1348-AA.
T13 chain: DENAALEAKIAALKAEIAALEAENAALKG
The experiment in a line: two-hybrid library CCmax. The following applies: mean of both orientations.

The target of test [14] is T14, 4H3121-AA.
T14 chain: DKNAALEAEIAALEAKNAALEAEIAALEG
The experiment in a line: two-hybrid library CCmax. The following applies: mean of both orientations.

In test [15] the target is T15, 4H2948-AA.
T15 chain: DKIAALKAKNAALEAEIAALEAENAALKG
The experiment in a line: two-hybrid library CCmax. The following applies: mean of both orientations.

Test [16] addresses T16, 4H2283-AA.
T16 chain: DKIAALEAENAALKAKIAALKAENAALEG
The test can be described thus: two-hybrid library CCmax. Particulars: mean of both orientations.

Test [17] has as its target T17, 4H3709-AA.
T17 chain: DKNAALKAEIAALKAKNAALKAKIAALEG
The test can be described thus: two-hybrid library CCmax. The following applies: mean of both orientations.

For test [18], the target named is T18, 4H3417-AA.
T18 chain: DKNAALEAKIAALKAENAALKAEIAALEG
The experiment in a line: two-hybrid library CCmax. The following applies: mean of both orientations.

Test [19] concerns the target T19, 4H2248-AA.
T19 chain: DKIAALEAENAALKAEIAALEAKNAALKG
The test can be described thus: two-hybrid library CCmax. The following applies: mean of both orientations.

Test [20] concerns the target T20, 4H3591-AA.
T20 chain: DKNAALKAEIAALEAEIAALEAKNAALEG
The test can be described thus: two-hybrid library CCmax. The following applies: mean of both orientations.

In test [21] the target is T21, 4H1854-AA.
T21 chain: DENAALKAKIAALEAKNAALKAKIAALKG
The experiment in a line: two-hybrid library CCmax. The following applies: mean of both orientations.

Test [22] concerns the target T22, 4H971-AA.
T22 chain: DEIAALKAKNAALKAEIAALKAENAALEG
The experiment in a line: two-hybrid library CCmax. The following applies: mean of both orientations.

Test [23] addresses T23, 4H497-AA.
T23 chain: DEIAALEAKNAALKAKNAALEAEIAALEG
The test can be described thus: two-hybrid library CCmax. Particulars: mean of both orientations.

Test [24] concerns the target T24, 4H3628-AA.
T24 chain: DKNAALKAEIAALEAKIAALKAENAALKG
The test can be described thus: two-hybrid library CCmax. Particulars: mean of both orientations.

Test [25] addresses T25, 4H391-AA.
T25 chain: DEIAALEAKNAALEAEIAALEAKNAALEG
The experiment in a line: two-hybrid library CCmax. Particulars: mean of both orientations.

For test [26], the target named is T26, 4H3102-AA.
T26 chain: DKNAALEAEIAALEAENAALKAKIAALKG
The experiment in a line: two-hybrid library CCmax. Particulars: mean of both orientations.

The target of test [27] is T27, 4H2742-AA.
T27 chain: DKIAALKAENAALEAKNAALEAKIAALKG
The test can be described thus: two-hybrid library CCmax. The following applies: mean of both orientations.

The target of test [28] is T28, 4H3939-AA.
T28 chain: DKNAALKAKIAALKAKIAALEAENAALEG
The experiment in a line: two-hybrid library CCmax. The following applies: mean of both orientations.

Test [29] has as its target T29, 4H189-AA.
T29 chain: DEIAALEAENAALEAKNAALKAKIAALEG
The experiment in a line: two-hybrid library CCmax. The following applies: mean of both orientations.

In test [30] the target is T30, 4H3029-AA.
T30 chain: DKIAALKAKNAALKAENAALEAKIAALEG
The experiment in a line: two-hybrid library CCmax. Particulars: mean of both orientations.

For test [31], the target named is T31, 4H1809-AA.
T31 chain: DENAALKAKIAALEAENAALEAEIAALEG
The experiment in a line: two-hybrid library CCmax. The following applies: mean of both orientations.

For test [32], the target named is T32, 4H3446-AA.
T32 chain: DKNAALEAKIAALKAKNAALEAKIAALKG
The test can be described thus: two-hybrid library CCmax.

Test [33] has as its target T33, P3A.
T33 chain: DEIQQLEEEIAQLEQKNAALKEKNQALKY
The test can be described thus: two-hybrid library CCNG1.

Test [34] addresses T34, P9A.
T34 chain: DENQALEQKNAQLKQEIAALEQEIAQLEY
The experiment in a line: two-hybrid library CCNG1.

For test [35], the target named is T35, P6A.
T35 chain: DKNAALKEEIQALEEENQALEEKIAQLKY
The experiment in a line: two-hybrid library CCNG1.

The target of test [36] is T36, P4A.
T36 chain: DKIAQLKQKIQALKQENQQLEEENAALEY
The experiment in a line: two-hybrid library CCNG1.

Test [37] concerns the target T37, P8A.
T37 chain: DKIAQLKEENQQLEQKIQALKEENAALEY
The experiment in a line: two-hybrid library CCNG1.

The target in test [38] is T38, P2A.
T38 chain: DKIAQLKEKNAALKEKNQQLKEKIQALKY
The experiment in a line: two-hybrid library CCNG1.

Test [39] concerns the target T39, P5A.
T39 chain: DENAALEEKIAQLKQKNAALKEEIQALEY
The experiment in a line: two-hybrid library CCNG1.

The target in test [40] is T40, P7A.
T40 chain: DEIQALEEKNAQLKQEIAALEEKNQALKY
The experiment in a line: two-hybrid library CCNG1.

Test [41] deals with T41, 4H2438-bN.
T41 chain: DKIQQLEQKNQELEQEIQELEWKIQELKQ
The experiment in a line: two-hybrid library CCNG1.

Test [42] has as its target T42, 4H40-bN.
T42 chain: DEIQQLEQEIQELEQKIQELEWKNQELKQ
The test can be described thus: two-hybrid library CCNG1.

Test [43] concerns the target T43, 4H3381-bH.
T43 chain: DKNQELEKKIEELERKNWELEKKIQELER
The experiment in a line: two-hybrid library CCNG1.

Test [44] has as its target T44, 4H492-bN.
T44 chain: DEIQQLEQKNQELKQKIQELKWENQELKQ
The test can be described thus: two-hybrid library CCNG1.

Test [45] has as its target T45, 4H2692-bN.
T45 chain: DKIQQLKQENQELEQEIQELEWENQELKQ
The experiment in a line: two-hybrid library CCNG1.

The target of test [46] is T46, 4H2717-bN.
T46 chain: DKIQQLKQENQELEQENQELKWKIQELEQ
The experiment in a line: two-hybrid library CCNG1.

For test [47], the target named is T47, 4H477-bN.
T47 chain: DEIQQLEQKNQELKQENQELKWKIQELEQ
The test can be described thus: two-hybrid library CCNG1.

Test [48] deals with T48, 4H2223-bN.
T48 chain: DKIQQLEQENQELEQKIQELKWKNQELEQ
The experiment in a line: two-hybrid library CCNG1.

The target in test [49] is T49, 4H319-bN.
T49 chain: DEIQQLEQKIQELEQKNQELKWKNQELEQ
The test can be described thus: two-hybrid library CCNG1.

Test [50] addresses T50, 4H2503-bN.
T50 chain: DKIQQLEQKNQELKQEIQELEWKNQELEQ
The experiment in a line: two-hybrid library CCNG1.

Test [51] concerns the target T51, 4H2588-bN.
T51 chain: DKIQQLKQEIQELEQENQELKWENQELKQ
The test can be described thus: two-hybrid library CCNG1.

Test [52] deals with T52, 4H2839-bN.
T52 chain: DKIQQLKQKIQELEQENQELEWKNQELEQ
The test can be described thus: two-hybrid library CCNG1.

In test [53] the target is T53, 4H2915-bN.
T53 chain: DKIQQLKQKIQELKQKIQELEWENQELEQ
The experiment in a line: two-hybrid library CCNG1.

In test [54] the target is T54, 4H741-bN.
T54 chain: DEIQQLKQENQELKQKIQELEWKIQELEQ
The experiment in a line: two-hybrid library CCNG1.

Test [55] addresses T55, 4H2473-bN.
T55 chain: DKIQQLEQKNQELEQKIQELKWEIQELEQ
The test can be described thus: two-hybrid library CCNG1.

The target in test [56] is T56, 4H3277-bN.
T56 chain: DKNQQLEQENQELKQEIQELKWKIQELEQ
The test can be described thus: two-hybrid library CCNG1.

The target of test [57] is T57, 4H3057-bN.
T57 chain: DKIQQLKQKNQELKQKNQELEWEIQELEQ
The experiment in a line: two-hybrid library CCNG1.

DENAALEAEIAALKAKNAALKAEIAALKG [4H1146-AA]: the interaction score in test [1] was -0.725; in [2], -0.861; in test [3], -1.56; in test [4], -1.58; in test [5], -1.53; in [6] it was 0.0108. Moreover, the interaction score in test [7] is 0.0699; in [8] it was 1.71; in test [9] it was -0.0838; in test [10], -0.0174; in test [11], 2.01; in [12], -1.22. Further, the interaction score in [13] is -1.15; in test [14], -0.198; in test [15], -0.764; in test [16], -0.542; in [17], -0.436; in test [18], 0.618. Further, the interaction score is -0.598 in test [19]; -0.991 in test [20]; -0.715 in test [21]; -0.562 in test [22]; -1.98 in test [23]; -1.65 in test [24]. The interaction score in test [25] is -1.21; in test [26], 0.627; in test [27], -1.39; in [28], -1.69; in test [29], -1.57; in test [30], -1.14. In addition, the results for the interaction score in [31] and in test [32] were 2.05 and 0.452, respectively.

With DKIAQLKEKNAALKEKNQQLKEKIQALKY [P2A], the interaction score was -1.21 in test [33]; -0.481 in test [34]; -0.59 in test [35]; -1.63 in test [36]; -0.85 in test [37]; -1.07 in test [38]. For the same molecule, the interaction score was -1.27 in test [39] and -2.38 in test [40].

In the case of DKIQQLEQENQELEQKIQELKWKNQELEQ [4H2223-bN], the interaction score in test [41] is -0.0421; in test [42] it was -0.775; in test [43] it was 0.0621; in [44], 0.539; in test [45], -0.818; in test [46] it was -2.14. Moreover, the interaction score in [47] was -1.55; in test [48] it was 0.483; in test [49], -0.943; in test [50] it was 1.04; in test [51], 0.654; in test [52], -0.721. Moreover, the interaction score in [53] is -1.33; in [54], -0.691; in test [55], -0.941; in test [56] it was -0.393; in test [57], -0.362.

Source of the values: article PMC10397247.
